# Results taken from patent US20180155451A1 (published 2018).
# T1: FcγRIIb extracellular domain with C-terminal His tag (human, UniProt P31994 43-217)
# T1 construct: extracellular domain; expressed in FreeStyle293 cells; analyte in the Biacore assay; also called FcgRIIb; 2b; not shown: His tag at the C terminus
# T1 sequence (looked up): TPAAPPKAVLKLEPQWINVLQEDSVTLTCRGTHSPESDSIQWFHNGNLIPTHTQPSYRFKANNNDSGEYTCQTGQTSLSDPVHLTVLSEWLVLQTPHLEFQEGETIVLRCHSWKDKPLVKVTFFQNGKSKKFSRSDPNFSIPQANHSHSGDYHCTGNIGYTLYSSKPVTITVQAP
# B1: GpH7-A5/GpH7-B3 variant H268_09D/GpL16-k0 (antibody, human IgG1, kappa)
# heavy 1: not shown
# heavy 2: not shown
# light: DIVMTQSPLSLPVTPGEPASISCQASESLVHSNRNTYLHWYLQKPGQSPQLLIYKVSNRFSGVPDRFSGSGSGTDFTLKISRVEAEDVGVYYCSQNTHVPPTFGQGTKVEIERTVAAPSVFIFPPSDEQLKSGTASVVCLLNNFYPREAKVQWKVDNALQSGNSQESVTEQDSKDSTYSLSSTLTLSKADYEKHKVYACEVTHQGLSSPVTKSFNRGEC
# notes: heterodimerized; mutation in the B3 H chain only; also called He Ab H268_09D
# B2: GpH7-A5/GpH7-B3 variant P238_15Y/GpL16-k0 (antibody, human IgG1, kappa)
# heavy 1: not shown
# heavy 2: not shown
# light: B1 light
# notes: heterodimerized; mutation in the B3 H chain only; also called He Ab P238_15Y
# B3: GpH7-A5/GpH7-B3 variant P331_15Y/GpL16-k0 (antibody, human IgG1, kappa)
# heavy 1: not shown
# heavy 2: not shown
# light: B1 light
# notes: heterodimerized; mutation in the B3 H chain only; also called He Ab P331_15Y
# B4: GpH7-A5/GpH7-B3 variant K334_07I/GpL16-k0 (antibody, human IgG1, kappa)
# heavy 1: not shown
# heavy 2: not shown
# light: B1 light
# notes: heterodimerized; mutation in the B3 H chain only; also called He Ab K334_07I
# B5: GpH7-A5/GpH7-B3 variant G236_10E/GpL16-k0 (antibody, human IgG1, kappa)
# heavy 1: not shown
# heavy 2: not shown
# light: B1 light
# notes: heterodimerized; mutation in the B3 H chain only; also called He Ab G236_10E
# B6: GpH7-A5/GpH7-B3 variant K334_13S/GpL16-k0 (antibody, human IgG1, kappa)
# heavy 1: not shown
# heavy 2: not shown
# light: B1 light
# notes: heterodimerized; mutation in the B3 H chain only; also called He Ab K334_13S
# B7: GpH7-A5/GpH7-B3 variant I332_04F/GpL16-k0 (antibody, human IgG1, kappa)
# heavy 1: not shown
# heavy 2: not shown
# light: B1 light
# notes: heterodimerized; mutation in the B3 H chain only; also called He Ab I332_04F
# B8: GpH7-A5/GpH7-B3 variant I332_10E/GpL16-k0 (antibody, human IgG1, kappa)
# heavy 1: not shown
# heavy 2: not shown
# light: B1 light
# notes: heterodimerized; mutation in the B3 H chain only; also called He Ab I332_10E
# B9: GpH7-A5/GpH7-B3 variant I332_14T/GpL16-k0 (antibody, human IgG1, kappa)
# heavy 1: not shown
# heavy 2: not shown
# light: B1 light
# notes: heterodimerized; mutation in the B3 H chain only; label printed T332_14T, read as I332_14T; also called He Ab I332_14T
# B10: GpH7-A5/GpH7-B3 variant G237_20W/GpL16-k0 (antibody, human IgG1, kappa)
# heavy 1: not shown
# heavy 2: not shown
# light: B1 light
# notes: heterodimerized; mutation in the B3 H chain only; also called He Ab G237_20W
# B11: GpH7-A5/GpH7-B3 variant I332_06M/GpL16-k0 (antibody, human IgG1, kappa)
# heavy 1: not shown
# heavy 2: not shown
# light: B1 light
# notes: heterodimerized; mutation in the B3 H chain only; also called He Ab I332_06M
# B12: GpH7-A5/GpH7-B3 variant P238_09D/GpL16-k0 (antibody, human IgG1, kappa)
# heavy 1: not shown
# heavy 2: not shown
# light: B1 light
# notes: heterodimerized; mutation in the B3 H chain only; also called He Ab P238_09D
# B13: GpH7-A5/GpH7-B3 variant K326_03V/GpL16-k0 (antibody, human IgG1, kappa)
# heavy 1: not shown
# heavy 2: not shown
# light: B1 light
# notes: heterodimerized; mutation in the B3 H chain only; also called He Ab K326_03V
# B14: GpH7-A5/GpH7-B3 variant A327_09D/GpL16-k0 (antibody, human IgG1, kappa)
# heavy 1: not shown
# heavy 2: not shown
# light: B1 light
# notes: heterodimerized; mutation in the B3 H chain only; also called He Ab A327_09D
# B15: GpH7-A5/GpH7-B3 variant G236_09D/GpL16-k0 (antibody, human IgG1, kappa)
# heavy 1: not shown
# heavy 2: not shown
# light: B1 light
# notes: heterodimerized; mutation in the B3 H chain only; also called He Ab G236_09D
# B16: GpH7-A5/GpH7-B3 variant K334_04F/GpL16-k0 (antibody, human IgG1, kappa)
# heavy 1: not shown
# heavy 2: not shown
# light: B1 light
# notes: heterodimerized; mutation in the B3 H chain only; also called He Ab K334_04F
# B17: GpH7-A5/GpH7-B3 variant H268_01G/GpL16-k0 (antibody, human IgG1, kappa)
# heavy 1: not shown
# heavy 2: not shown
# light: B1 light
# notes: heterodimerized; mutation in the B3 H chain only; also called He Ab H268_01G
# B18: GpH7-A5/GpH7-B3 variant H268_10E/GpL16-k0 (antibody, human IgG1, kappa)
# heavy 1: not shown
# heavy 2: not shown
# light: B1 light
# notes: heterodimerized; mutation in the B3 H chain only; also called He Ab H268_10E
# B19: GpH7-A5/GpH7-B3 variant K334_02A/GpL16-k0 (antibody, human IgG1, kappa)
# heavy 1: not shown
# heavy 2: not shown
# light: B1 light
# notes: heterodimerized; mutation in the B3 H chain only; also called He Ab K334_02A
# B20: GpH7-B3 variant S239_10E/GpL16-k0 (antibody, human IgG1, kappa)
# heavy: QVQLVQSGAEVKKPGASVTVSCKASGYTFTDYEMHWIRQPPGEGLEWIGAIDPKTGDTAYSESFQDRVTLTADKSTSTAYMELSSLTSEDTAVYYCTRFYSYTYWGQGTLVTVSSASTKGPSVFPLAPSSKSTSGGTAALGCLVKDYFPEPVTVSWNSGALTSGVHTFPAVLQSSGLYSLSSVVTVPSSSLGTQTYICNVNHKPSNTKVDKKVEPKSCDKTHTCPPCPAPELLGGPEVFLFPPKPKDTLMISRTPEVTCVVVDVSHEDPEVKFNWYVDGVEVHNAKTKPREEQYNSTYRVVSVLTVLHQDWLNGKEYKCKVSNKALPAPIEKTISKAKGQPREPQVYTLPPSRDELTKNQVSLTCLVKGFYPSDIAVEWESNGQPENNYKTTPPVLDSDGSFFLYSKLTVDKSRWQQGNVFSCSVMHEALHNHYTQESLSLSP
# light: B1 light
# notes: homodimerized; mutation in both H chains; also called Ho Ab S239_10E
# B21: GpH7-B3 variant T335_15Y/GpL16-k0 (antibody, human IgG1, kappa)
# heavy: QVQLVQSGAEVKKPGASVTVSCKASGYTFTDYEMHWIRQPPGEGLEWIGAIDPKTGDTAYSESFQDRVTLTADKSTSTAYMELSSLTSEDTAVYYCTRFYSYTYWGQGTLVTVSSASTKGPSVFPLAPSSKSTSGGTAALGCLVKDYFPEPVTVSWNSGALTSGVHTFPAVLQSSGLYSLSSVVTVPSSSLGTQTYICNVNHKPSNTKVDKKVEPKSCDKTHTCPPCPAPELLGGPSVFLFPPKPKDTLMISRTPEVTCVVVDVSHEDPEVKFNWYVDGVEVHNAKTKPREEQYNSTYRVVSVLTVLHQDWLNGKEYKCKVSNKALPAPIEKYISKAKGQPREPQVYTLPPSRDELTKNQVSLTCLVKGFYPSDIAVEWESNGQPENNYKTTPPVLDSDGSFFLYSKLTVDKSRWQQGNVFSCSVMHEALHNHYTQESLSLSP
# light: B1 light
# notes: homodimerized; mutation in both H chains; also called Ho Ab T335_15Y
# B22: GpH7-B3 variant S337_16H/GpL16-k0 (antibody, human IgG1, kappa)
# heavy: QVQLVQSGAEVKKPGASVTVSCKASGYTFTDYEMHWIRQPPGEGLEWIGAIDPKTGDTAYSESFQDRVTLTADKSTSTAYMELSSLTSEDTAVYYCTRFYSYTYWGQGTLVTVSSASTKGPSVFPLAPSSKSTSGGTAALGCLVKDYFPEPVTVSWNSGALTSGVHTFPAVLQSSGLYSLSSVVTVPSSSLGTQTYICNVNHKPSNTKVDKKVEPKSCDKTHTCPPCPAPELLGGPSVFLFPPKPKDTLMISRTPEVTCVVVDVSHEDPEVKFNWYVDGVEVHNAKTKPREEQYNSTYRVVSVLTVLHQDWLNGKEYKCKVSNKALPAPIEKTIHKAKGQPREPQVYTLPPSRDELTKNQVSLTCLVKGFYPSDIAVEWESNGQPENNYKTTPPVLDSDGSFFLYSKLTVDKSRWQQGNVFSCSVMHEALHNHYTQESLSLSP
# light: B1 light
# notes: homodimerized; mutation in both H chains; also called Ho Ab S337_16H
# B23: GpH7-B3 variant V266_06M/GpL16-k0 (antibody, human IgG1, kappa)
# heavy: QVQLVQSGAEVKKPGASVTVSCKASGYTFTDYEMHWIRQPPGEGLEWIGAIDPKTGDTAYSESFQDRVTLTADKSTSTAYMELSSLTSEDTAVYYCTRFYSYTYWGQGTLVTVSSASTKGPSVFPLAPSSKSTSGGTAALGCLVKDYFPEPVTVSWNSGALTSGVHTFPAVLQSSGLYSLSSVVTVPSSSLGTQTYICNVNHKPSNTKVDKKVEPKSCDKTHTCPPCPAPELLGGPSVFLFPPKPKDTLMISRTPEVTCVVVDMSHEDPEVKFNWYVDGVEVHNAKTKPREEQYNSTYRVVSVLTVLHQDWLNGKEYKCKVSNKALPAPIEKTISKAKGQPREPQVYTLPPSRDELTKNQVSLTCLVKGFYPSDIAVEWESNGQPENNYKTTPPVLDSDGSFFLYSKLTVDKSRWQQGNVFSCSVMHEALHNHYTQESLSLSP
# light: B1 light
# notes: homodimerized; mutation in both H chains; also called Ho Ab V266_06M
# B24: GpH7-B3 variant S267_19Q/GpL16-k0 (antibody, human IgG1, kappa)
# heavy: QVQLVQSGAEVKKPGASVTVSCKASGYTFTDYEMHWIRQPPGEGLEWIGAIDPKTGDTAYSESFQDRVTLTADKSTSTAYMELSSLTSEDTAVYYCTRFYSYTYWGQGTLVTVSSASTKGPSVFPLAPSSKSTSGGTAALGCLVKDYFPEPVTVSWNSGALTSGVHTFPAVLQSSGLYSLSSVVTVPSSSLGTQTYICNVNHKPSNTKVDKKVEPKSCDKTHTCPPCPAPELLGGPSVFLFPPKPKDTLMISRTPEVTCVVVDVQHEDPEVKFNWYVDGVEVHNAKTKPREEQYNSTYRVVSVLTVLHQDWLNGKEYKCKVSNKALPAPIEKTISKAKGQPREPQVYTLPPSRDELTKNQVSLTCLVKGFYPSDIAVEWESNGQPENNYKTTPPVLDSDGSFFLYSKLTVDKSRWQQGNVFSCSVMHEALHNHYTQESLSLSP
# light: B1 light
# notes: homodimerized; mutation in both H chains; also called Ho Ab S267_19Q
# B25: GpH7-B3 variant T335_10E/GpL16-k0 (antibody, human IgG1, kappa)
# heavy: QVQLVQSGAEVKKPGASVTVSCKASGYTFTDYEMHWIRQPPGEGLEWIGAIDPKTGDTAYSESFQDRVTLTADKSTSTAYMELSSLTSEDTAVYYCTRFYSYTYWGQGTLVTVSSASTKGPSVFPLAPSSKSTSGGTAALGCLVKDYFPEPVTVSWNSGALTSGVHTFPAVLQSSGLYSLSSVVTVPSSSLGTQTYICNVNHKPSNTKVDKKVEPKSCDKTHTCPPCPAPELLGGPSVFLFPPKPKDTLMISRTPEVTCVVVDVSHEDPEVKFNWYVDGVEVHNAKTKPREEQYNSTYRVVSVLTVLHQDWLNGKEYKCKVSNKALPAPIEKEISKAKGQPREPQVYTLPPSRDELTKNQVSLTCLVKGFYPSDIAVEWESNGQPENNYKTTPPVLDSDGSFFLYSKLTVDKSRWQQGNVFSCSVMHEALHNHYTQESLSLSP
# light: B1 light
# notes: homodimerized; mutation in both H chains; also called Ho Ab T335_10E
# B26: GpH7-B3 variant S267_06M/GpL16-k0 (antibody, human IgG1, kappa)
# heavy: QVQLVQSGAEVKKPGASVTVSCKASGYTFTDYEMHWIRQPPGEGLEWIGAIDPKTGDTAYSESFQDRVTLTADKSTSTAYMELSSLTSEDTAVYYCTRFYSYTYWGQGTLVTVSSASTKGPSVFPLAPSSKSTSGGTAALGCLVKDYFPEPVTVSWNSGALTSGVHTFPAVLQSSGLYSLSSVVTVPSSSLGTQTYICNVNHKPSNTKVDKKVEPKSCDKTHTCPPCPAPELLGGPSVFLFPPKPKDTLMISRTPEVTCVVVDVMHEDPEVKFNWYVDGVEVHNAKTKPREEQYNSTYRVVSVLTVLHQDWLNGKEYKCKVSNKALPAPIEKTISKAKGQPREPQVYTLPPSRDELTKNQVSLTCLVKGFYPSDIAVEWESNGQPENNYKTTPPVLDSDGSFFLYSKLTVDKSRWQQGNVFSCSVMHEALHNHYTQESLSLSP
# light: B1 light
# notes: homodimerized; mutation in both H chains; also called Ho Ab S267_06M
# B27: GpH7-B3 variant Y296_20W/GpL16-k0 (antibody, human IgG1, kappa)
# heavy: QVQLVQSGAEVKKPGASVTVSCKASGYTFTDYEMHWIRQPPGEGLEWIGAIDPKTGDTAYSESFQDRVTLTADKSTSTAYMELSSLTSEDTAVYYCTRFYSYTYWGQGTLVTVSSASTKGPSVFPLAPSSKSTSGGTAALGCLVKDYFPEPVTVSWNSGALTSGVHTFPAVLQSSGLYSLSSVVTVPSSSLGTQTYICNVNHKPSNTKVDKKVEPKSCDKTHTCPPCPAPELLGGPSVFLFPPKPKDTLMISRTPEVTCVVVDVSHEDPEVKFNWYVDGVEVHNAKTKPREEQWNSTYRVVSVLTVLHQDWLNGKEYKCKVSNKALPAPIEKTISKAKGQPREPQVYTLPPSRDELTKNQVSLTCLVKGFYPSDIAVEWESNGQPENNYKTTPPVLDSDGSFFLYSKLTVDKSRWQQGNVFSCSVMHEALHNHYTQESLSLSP
# light: B1 light
# notes: homodimerized; mutation in both H chains; also called Ho Ab Y296_20W
# B28: GpH7-B3 variant S324_06M/GpL16-k0 (antibody, human IgG1, kappa)
# heavy: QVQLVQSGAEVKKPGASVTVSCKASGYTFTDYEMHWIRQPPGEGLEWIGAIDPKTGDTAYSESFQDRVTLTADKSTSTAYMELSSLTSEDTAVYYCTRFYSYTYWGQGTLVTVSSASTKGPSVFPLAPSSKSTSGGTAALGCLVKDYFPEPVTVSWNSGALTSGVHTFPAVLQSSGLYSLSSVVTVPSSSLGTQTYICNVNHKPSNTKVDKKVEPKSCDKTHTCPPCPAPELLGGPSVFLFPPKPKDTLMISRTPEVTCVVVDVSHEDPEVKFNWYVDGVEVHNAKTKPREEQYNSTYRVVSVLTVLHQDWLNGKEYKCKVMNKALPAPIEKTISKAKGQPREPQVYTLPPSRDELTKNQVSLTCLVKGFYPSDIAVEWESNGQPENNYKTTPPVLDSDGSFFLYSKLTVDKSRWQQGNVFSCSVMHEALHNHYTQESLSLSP
# light: B1 light
# notes: homodimerized; mutation in both H chains; also called Ho Ab S324_06M
# B29: GpH7-B3 variant T335_07I/GpL16-k0 (antibody, human IgG1, kappa)
# heavy: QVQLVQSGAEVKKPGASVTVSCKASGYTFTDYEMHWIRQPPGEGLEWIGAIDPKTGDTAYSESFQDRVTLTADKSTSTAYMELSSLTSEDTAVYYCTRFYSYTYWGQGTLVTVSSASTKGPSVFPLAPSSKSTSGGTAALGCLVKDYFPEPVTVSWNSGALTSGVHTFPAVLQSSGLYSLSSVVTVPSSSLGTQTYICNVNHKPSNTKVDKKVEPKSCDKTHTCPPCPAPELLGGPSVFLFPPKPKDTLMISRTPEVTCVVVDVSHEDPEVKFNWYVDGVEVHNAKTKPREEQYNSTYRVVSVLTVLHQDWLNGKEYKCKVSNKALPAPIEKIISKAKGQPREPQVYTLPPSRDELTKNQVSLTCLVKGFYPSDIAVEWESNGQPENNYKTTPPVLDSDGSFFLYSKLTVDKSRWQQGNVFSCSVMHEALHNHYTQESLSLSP
# light: B1 light
# notes: homodimerized; mutation in both H chains; also called Ho Ab T335_07I
# Biological target: T1, FcγRIIb extracellular domain with …
# Test: SPR (Biacore), captured antibody, FcγRIIb analyte; binding relative to GpH7-A5/GpH7-B3/GpL16-k0 = 100
row,He/Con_2b,Binder
1,239 % of control,B1
2,218 % of control,B2
3,114 % of control,B3
4,119 % of control,B4
5,110 % of control,B5
6,111 % of control,B6
7,104 % of control,B7
8,142 % of control,B8
9,106 % of control,B9
10,193 % of control,B10
11,105 % of control,B11
12,221 % of control,B12
13,175 % of control,B13
14,172 % of control,B14
15,167 % of control,B15
16,111 % of control,B16
17,144 % of control,B17
18,230 % of control,B18
19,108 % of control,B19

# Biological target: T1, FcγRIIb extracellular domain with …
# Test: SPR (Biacore), captured antibody, FcγRIIb analyte; binding relative to GpH7-B3/GpL16-k0 = 100
row,Ho/Con_2b,Binder
1,175 % of control,B20
2,104 % of control,B21
3,103 % of control,B22
4,231 % of control,B23
5,185 % of control,B24
6,108 % of control,B25
7,187 % of control,B26
8,103 % of control,B27
9,104 % of control,B28
10,104 % of control,B29
